Data: article PMC5377317, “Generation of Aptamers from A Primer-Free Randomized ssDNA Library Using Magnetic-Assisted Rapid Aptamer Selection”

Molecular target: T1, C-reactive protein (CRP) (human, UniProt P02741 19-224)
T1 sequence: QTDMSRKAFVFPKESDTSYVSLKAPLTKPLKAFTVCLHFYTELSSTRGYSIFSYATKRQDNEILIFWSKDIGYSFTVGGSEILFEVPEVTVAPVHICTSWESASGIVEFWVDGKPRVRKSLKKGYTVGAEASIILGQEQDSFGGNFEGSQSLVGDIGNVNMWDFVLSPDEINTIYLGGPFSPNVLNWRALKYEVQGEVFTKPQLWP
Assay: magnetic bead pull-down with q-PCR, saturation fit; apparent Kd; 2 mM MgCl2; CRP-MNPs; BD buffer: 50 mM NaH2PO4 pH 8.0, 150 mM NaCl, 5 mM KCl, 2 mM MgCl2, 0.05% Tween-20; room temperature, 30 min; aptamer 1.5625-200 nM
Details: protein: commercial; tags: biotinylated (EZ-Link Sulfo-NHS-Biotin), on streptavidin magnetic nanoparticles; chain copies: 5; single strand, small loop predicted by Mfold (dG -2.93 kcal/mol)

B1: PF20N-RO-MARAS-84-1 (ssDNA)
DNA: GTTGACGGGCGATTGGTCTT
In the case of B1, the Kd is reported as 23.6 ± 0.82 nM.
